Measured values from IntAct's records for PubMed 25710501.

B1: Granule-bound starch synthase 1, chloroplastic/amyloplastic (Arabidopsis thaliana (Mouse-ear cress)), Q9MAQ0 (parent)
chain: MATVTASSNFVSRTSLFNNHGASSCSDVAQITLKGQSLTHCGLRSFNMVDNLQRRSQAKPVSAKSSKRSSKVKTAGKIVCEKGMSVIFIGAEVGPWSKTGGLGDVLGGLPPALAARGHRVMTICPRYDQYKDAWDTCVVVQIKVGDKVENVRFFHCYKRGVDRVFVDHPIFLAKVVGKTGSKIYGPITGVDYNDNQLRFSLLCQAALEAPQVLNLNSSKYFSGPYGEDVVFVANDWHTALLPCYLKSMYQSRGVYMNAKVVFCIHNIAYQGRFAFDDYSLLNLPISFKSSFDFMDGYEKPVKGRKINWMKAAILEAHRVLTVSPYYAQELISGVDRGVELHKYLRMKTVSGIINGMDVQEWNPSTDKYIDIKYDITTVTDAKPLIKEALQAAVGLPVDRDVPVIGFIGRLEEQKGSDILVEAISKFMGLNVQMVILGTGKKKMEAQILELEEKFPGKAVGVAKFNVPLAHMITAGADFIIVPSRFEPCGLIQLHAMRYGTVPIVASTGGLVDTVKDGYTGFHIGRFNVKCEVVDPDDVIATAKAVTRAVAVYGTSAMQEMVKNCMDQDFSWKGPARLWEKVLLSLNVAGSEAGTEGEEIAPLAKENVATP
partner: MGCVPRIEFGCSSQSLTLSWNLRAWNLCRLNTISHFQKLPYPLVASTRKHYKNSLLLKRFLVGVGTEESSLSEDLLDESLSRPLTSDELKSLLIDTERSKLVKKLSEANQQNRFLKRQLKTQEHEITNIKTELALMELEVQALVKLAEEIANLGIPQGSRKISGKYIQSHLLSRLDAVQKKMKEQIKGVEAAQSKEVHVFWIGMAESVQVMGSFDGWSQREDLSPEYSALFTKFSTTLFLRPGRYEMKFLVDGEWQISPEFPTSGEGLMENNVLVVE

Variants of: B1
Conditions: with ptst_arath PTST

Variant	effect of a mutation on the interaction
E452K	disrupting interaction strength
K441E	decreasing interaction strength
K441E;E452K	disrupting interaction strength
E449K	decreasing interaction strength

Variants of: B1
Conditions: with ptst_arath PTST
Remark: another data set of the same source

Variant	effect of a mutation on the interaction
E452K	decreasing interaction strength
K441E;E452K	decreasing interaction strength
